# Measured values: patent publication US8975259B2, “Compositions and methods for inhibiting G protein signaling” (University of Rochester, priority 2007, dated 2015)
# Where two headings read alike, the source gives them in different places.
# Columns and labels:
# Gβ1γ2 = Gβ1γ2 (UniProt P54311+P63212); experiment: Competition phage ELISA: inhibition of SIGK-phage binding to immobilized biotinylated Gβ1γ2; design: made in house; host or cells: Sf9 insect cells (baculovirus; co-expressed with BirA and (His)6-Gαi1, from which βγ was eluted); species or system rat
# Protocol: Phage ELISA assays used to assess peptide binding to wild-type and mutant b-βγ were performed according to standard methods (Smrcka and Scott (2002) Methods Enzymol. 344:557-76). Briefly, 1 μg streptavidin was immobilized in the well of a […] overnight at 4° C. The wells were blocked with 100 μL of 2% bovine serum albumin (BSA) in Tris-buffered saline (TBS) for 1 hour at 4° C. followed by three washes of IX TBS/0.5% TWEEN®. […] The wells were washed, followed by the addition of IxIO^6 to IxIO^10 phage particles and incubated at 4° C. for 3 hours. The wells were then washed six times with TBS/0.5% TWEEN® followed by addition of 40 μL of 1:5000 dilution of anti-M13 antibody (Pharmacia, Uppsala, Sweden) and incubated at room temperature for 1 hour. The wells were washed, followed by the addition of 40 μL of (2,2′-Azino-bis (3-ethylbenzthiazoline)-6-sulfonic acid (ABTS) and the colorimetric reaction was monitored at 405 nm. Nonspecific binding was subtracted for each reading.
# A phage ELISA assay was used to determine whether small molecules identified in the computational screen could interact with the Gβy protein interaction surface. […] The screen was based on a reduction in the optical density (OD) of wells containing Gβγ subunits and phage. […] Three background wells contained no βy subunits.
# As disclosed herein, biotinylated Gβy subunits were immobilized on the surface of a 96-well plate coated with streptavidin, phage displaying Gβγ-binding peptides were subsequently added and binding in the presence and absence of test compounds detected with an anti-phage antibody.
# The phage ELISA assay was used to rapidly screen the ability of compounds to bind to the protein interaction “hot spot” based on the method of Scott et. al (Scott et al., 2001). This assay is performed in the presence of detergent (0.5% Tween) to eliminate non-specific compound aggregation artifacts.
# Compounds/DMSO and 0.1×10^10 phage were added simultaneously and subsequently incubated for 1 h at room temperature. Plates were then washed with 1× Tris-buffered saline/0.5% Tween 20 and incubated with anti-M13, HRP-conjugated antibody (Amersham, Chalfont St. Giles, Buckinghamshire, UK). Phage binding was determined by monitoring A405 upon addition of 2,2′-azino-bis(3-ethylbenzothiazoline-6-sulfonic acid) (Sigma Aldrich).
# Gβ1γ2 (Gβ1 mutants) [1] = target: T1, Gβ1γ2 (Gβ1 mutants) (UniProt P54311+P63212, R314A); experiment: Phage ELISA: binding of peptide-displaying phage to wild-type or alanine-substituted b-βγ; design: species or system rat; settings: Gβ1 Arg314Ala; mean ± SD
# T1 construct: made in house; host or cells: Sf9 insect cells (baculovirus), partially purified via (His)6-Gαi1 on Ni-NTA
# Excerpt: (§1) Wild-type Gβ1 and Gp1 mutants were made in the baculovirus vector PDW464 which encodes a biotinylation site at a lysine upstream of the amino terminus of Gβ1 (Goubaeva, et al. (2003) supra). Mutants were generated by overlap extension PCR using standard protocols. The wild-type and mutant Gβ1 constructs consisted of a 20 amino acid biotin acceptor peptide (BAP) sequence fused in-frame with the amino-terminus of rat Gβ1 subunit. When coexpressed with biotin holoenzyme synthetase (BirA) in Sf9 cells, the Gβ1 subunit becomes covalently biotinylated in vivo at the specific lysine acceptor residue in the BAP. Using this approach, 1-2 mg protein of purified protein can be obtained per liter of Sf9 insect cells. As 45 ng of protein is used in the phage ELISA assay, a single purification is sufficient for 10,000 to 30,000 binding assays.
# (§2) Phage ELISA assays used to assess peptide binding to wild-type and mutant b-βγ were performed according to standard methods (Smrcka and Scott (2002) Methods Enzymol. 344:557-76). Briefly, 1 μg streptavidin was immobilized in the well of a […] overnight at 4° C. The wells were blocked with 100 μL of 2% bovine serum albumin (BSA) in Tris-buffered saline (TBS) for 1 hour at 4° C. followed by three washes of IX TBS/0.5% TWEEN®. Forty μL of 25 nM bGβ1γ2 in TBS/0.5% TWEEN® was added to each well and incubated at 4° C. for 1.5 hour. The wells were washed, followed by the addition of IxIO^6 to IxIO^10 phage particles and incubated at 4° C. for 3 hours. The wells were then washed six times with TBS/0.5% TWEEN® followed by addition of 40 μL of 1:5000 dilution of anti-M13 antibody (Pharmacia, Uppsala, Sweden) and incubated at room temperature for 1 hour. The wells were washed, followed by the addition of 40 μL of (2,2′-Azino-bis (3-ethylbenzthiazoline)-6-sulfonic acid (ABTS) and the colorimetric reaction was monitored at 405 nm. Nonspecific binding was subtracted for each reading.
# (§3) The nine peptides were selected to represent the different consensus groups of peptides previously identified (See Scott et al. (2001) supra; Table 15) and to compare binding characteristics within and between consensus groups. […] As disclosed herein, the binding signal obtained in the ELISA assay was correlated to a loss in affinity by comparing the results to behavior of the peptide in a solution based assay. […] For the purposes of present disclosure, any substitution that decreased the binding to less than 20% of the wild-type binding was considered to be a critical binding contact for that peptide.
# Gβ1γ2 (Gβ1 mutants) [2] = target: T2, Gβ1γ2 (Gβ1 mutants) (UniProt P54311+P63212, D246S); experiment: as above; design: species or system rat; settings: Gβ1 Asp246Ser; mean ± SD
# T2 construct: made in house; host or cells: Sf9 insect cells (baculovirus), partially purified via (His)6-Gαi1 on Ni-NTA
# Excerpt: as §1, §2, §3
# Gβ1γ2 (Gβ1 mutants) [3] = target: T3, Gβ1γ2 (Gβ1 mutants) (UniProt P54311+P63212, M101A); experiment: as above; design: species or system rat; settings: Gβ1 Met101Ala; mean ± SD
# T3 construct: made in house; host or cells: Sf9 insect cells (baculovirus), partially purified via (His)6-Gαi1 on Ni-NTA
# Excerpt: as §1, §2, §3
# Gβ1γ2 (Gβ1 mutants) [4] = target: T4, Gβ1γ2 (Gβ1 mutants) (UniProt P54311+P63212, N230A); experiment: as above; design: species or system rat; settings: Gβ1 Asn230Ala; mean ± SD
# T4 construct: made in house; host or cells: Sf9 insect cells (baculovirus), partially purified via (His)6-Gαi1 on Ni-NTA
# Excerpt: as §1, §2, §3
# Gβ1γ2 (Gβ1 mutants) [5] = target: T5, Gβ1γ2 (Gβ1 mutants) (UniProt P54311+P63212, L117A); experiment: as above; design: species or system rat; settings: Gβ1 Leu117Ala; mean ± SD
# T5 construct: made in house; host or cells: Sf9 insect cells (baculovirus), partially purified via (His)6-Gαi1 on Ni-NTA
# Excerpt: as §1, §2, §3
# Gβ1γ2 (Gβ1 mutants) [6] = target: T6, Gβ1γ2 (Gβ1 mutants) (UniProt P54311+P63212, K57A); experiment: as above; design: species or system rat; settings: Gβ1 Lys57Ala; mean ± SD
# T6 construct: made in house; host or cells: Sf9 insect cells (baculovirus), partially purified via (His)6-Gαi1 on Ni-NTA
# Excerpt: as §1, §2, §3
# Gβ1γ2 (Gβ1 mutants) [7] = target: T7, Gβ1γ2 (Gβ1 mutants) (UniProt P54311+P63212, W332A); experiment: as above; design: species or system rat; settings: Gβ1 Trp332Ala; mean ± SD
# T7 construct: made in house; host or cells: Sf9 insect cells (baculovirus), partially purified via (His)6-Gαi1 on Ni-NTA
# Excerpt: as §1, §2, §3
# Gβ1γ2 (Gβ1 mutants) [8] = target: T8, Gβ1γ2 (Gβ1 mutants) (UniProt P54311+P63212, W99A); experiment: as above; design: species or system rat; settings: Gβ1 Trp99Ala; mean ± SD
# T8 construct: made in house; host or cells: Sf9 insect cells (baculovirus), partially purified via (His)6-Gαi1 on Ni-NTA
# Excerpt: as §1, §2, §3
# Gβ1γ2 (Gβ1 mutants) [9] = target: T9, Gβ1γ2 (Gβ1 mutants) (UniProt P54311+P63212, Y59A); experiment: as above; design: species or system rat; settings: Gβ1 Tyr59Ala; mean ± SD
# T9 construct: made in house; host or cells: Sf9 insect cells (baculovirus), partially purified via (His)6-Gαi1 on Ni-NTA
# Excerpt: as §1, §2, §3
# Gβ1γ2 (Gβ1 mutants) [10] = target: T10, Gβ1γ2 (Gβ1 mutants) (UniProt P54311+P63212, Y145A); experiment: as above; design: species or system rat; settings: Gβ1 Tyr145Ala; mean ± SD
# T10 construct: made in house; host or cells: Sf9 insect cells (baculovirus), partially purified via (His)6-Gαi1 on Ni-NTA
# Excerpt: as §1, §2, §3
# Gβ1γ2 (Gβ1 mutants) [11] = target: T11, Gβ1γ2 (Gβ1 mutants) (UniProt P54311+P63212, H311A); experiment: as above; design: species or system rat; settings: Gβ1 His311Ala; mean ± SD
# T11 construct: made in house; host or cells: Sf9 insect cells (baculovirus), partially purified via (His)6-Gαi1 on Ni-NTA
# Excerpt: as §1, §2, §3
# Gβ1γ2 (Gβ1 mutants) [12] = target: T12, Gβ1γ2 (Gβ1 mutants) (UniProt P54311+P63212, M188A); experiment: as above; design: species or system rat; settings: Gβ1 Met188Ala; mean ± SD
# T12 construct: made in house; host or cells: Sf9 insect cells (baculovirus), partially purified via (His)6-Gαi1 on Ni-NTA
# Excerpt: as §1, §2, §3
# Gβ1γ2 (Gβ1 mutants) [13] = target: T13, Gβ1γ2 (Gβ1 mutants) (UniProt P54311+P63212, D186A); experiment: as above; design: species or system rat; settings: Gβ1 Asp186Ala; mean ± SD
# T13 construct: made in house; host or cells: Sf9 insect cells (baculovirus), partially purified via (His)6-Gαi1 on Ni-NTA
# Excerpt: as §1, §2, §3
Molecule,IC50 (Gβ1γ2; Table 6),% of Wild-Type Signal (Gβ1γ2 (Gβ1 mutants) [1]),% of Wild-Type Signal (Gβ1γ2 (Gβ1 mutants) [2]),% of Wild-Type Signal (Gβ1γ2 (Gβ1 mutants) [3]),% of Wild-Type Signal (Gβ1γ2 (Gβ1 mutants) [4]),% of Wild-Type Signal (Gβ1γ2 (Gβ1 mutants) [5]),% of Wild-Type Signal (Gβ1γ2 (Gβ1 mutants) [6]),% of Wild-Type Signal (Gβ1γ2 (Gβ1 mutants) [7]),% of Wild-Type Signal (Gβ1γ2 (Gβ1 mutants) [8]),% of Wild-Type Signal (Gβ1γ2 (Gβ1 mutants) [9]),% of Wild-Type Signal (Gβ1γ2 (Gβ1 mutants) [10]),% of Wild-Type Signal (Gβ1γ2 (Gβ1 mutants) [11]),% of Wild-Type Signal (Gβ1γ2 (Gβ1 mutants) [12]),% of Wild-Type Signal (Gβ1γ2 (Gβ1 mutants) [13]),other results
Ic1ccc2c(c1)N(c1ccccc1)c1cc(Nc3ccc4c(c3)N(c3ccccc3)c3cc(I)ccc3N4)ccc1N2,,,,,,,,,,,,,,,"IC50 (Gβ1γ2; Table 7, read-out: ELISA IC50): 2000 nM"
O=C(O)c1cccc2cccc(-c3c4ccc(=O)c(O)c-4oc4c(O)c(O)ccc34)c12 [drawing 108],150 nM,,,,,,,,,,,,,,
"O=C(O)/C=C/c1c2ccc(=O)c(O)c-2oc2c(O)c(O)ccc12 [(E)-3-(4,5,6-trihydroxy-3-oxo-3H-xanthen-9-yl)acrylic acid]",,,,,,,,,,,,,,,"IC50 (Gβ1γ2; kind of constant not stated, read-out: binding to the G protein β subunit): 200 nM"
CC1C2C=CC1C(c1c3ccc(=O)c(O)c-3oc3c(O)c(O)ccc13)C2C(=O)O (stereo not drawn),700 nM,,,,,,,,,,,,,,
WCPPKLEQWYDGCA [Compound C2],,1.3 ± 3.1%,5.9 ± 5.7%,157.1 ± 51.5%,0.0 ± 3.3%,1.5 ± 5.5%,−1.2 ± 4.5%,4.7 ± 6.2%,−1.0 ± 5.1%,−1.7 ± 4.8%,4.5 ± 8.1%,11.7 ± 8.0%,−0.7 ± 2.5%,267.2 ± 40.6%,
SIGKALFILGYPDYD [Compound 3.14],,50.2 ± 5.0%,66.5 ± 7.5%,26.8 ± 12.5%,22.4 ± 4.2%,2.1 ± 2.4%,18.6 ± 4.6%,7.1 ± 3.7%,66.0 ± 7.7%,24.7 ± 15.2%,0.8 ± 0.9%,93.4 ± 21.5%,2.5 ± 3.7%,14.4 ± 13.4%,
